Where a chain is given by its changes, count along the chain named.
B1: … VYGLRKKKAARGRRAARGRR (protein)
chain: HHGHHGGHHHPGIPVKQADSGSSEEKGGGPPTPVVPTVDTYDGRGDSVVYGLRKKKAARGRRAARGRR
modifications: His tag
B2: oncolysin 1/Sophin C: second generation molecule: oncolysin N with synthetic heparin binding domain (RSKK and RGRR) at the C terminus; 71mer (protein)
chain: MRIAVICFCLLGITCAGGGPGIPVKQADSGSSEEKGGGPGTPVVPTVDTYDGRGDSVVYGLRSKKAARGRR
B3: MRIAVICFCLLGITCAGGGPGIPVKQADSGSSEEKGGGPGTPVVPTVDTY DGRGDSVVYGLRSKKAARGRRAARGRR (protein)
chain: MRIAVICFCLLGITCAGGGPGIPVKQADSGSSEEKGGGPGTPVVPTVDTYDGRGDSVVYGLRSKKAARGRRAARGRR
B4: MRIAVICFCLLGITCAGGGPGIPVKQADSGSSEEKGGGPGTPVVPTVDTY DGRGDSVVYGLRKKKAARGRRAARGRR (protein)
chain: B3 chain with S63K
B5: Oncolysin 2: second generation molecule: oncolysin N with a synthetic collagen binding domain at the C terminus (protein)
chain: MRIAVICFCLLGITCAGGGPGIPVKQADSGSSEEKGGGPGTPVVPTVDTYDGRGDSVVYGLRSKPAGAAGGPAGPAGPAGPAGPAGP

How the values were obtained:
microtubules = experiment: effect on microtubules in treated cells; format: cell-based
Text: Based on a detailed understanding of the functional domains of osteopontin and an understanding of the role this multifunctional cytokine plays in the regulation of cellular apoptosis, biosynthetic molecules which mimic distinct functions of osteopontin are provided for use in a variety of therapeutic applications, in particular, in the treatment of cancer and inflammatory conditions such as arthritis. In particular, the biosynthetic molecules are useful in the elimination of abnormal or unwanted cells that express at least an integrin receptor and/or that co-express both an integrin and a CD44 receptor. Many of the biosynthetic molecules/peptides disclosed herein are believed to uncouple integrin signaling form CD 44 signaling, resulting in the stabilization of microtubules by down stream activation of rhoB. […] Cells treated with these molecules organize the arrays of disorganized microtubules into parallel bundles and freeze the normal, microtubular, mitotic bundle. As a result, the treated cells form several more asters at various locations with the cell, serving to further strengthen the cell's structure and preventing cell separation.
Many of the biosynthetic molecules/peptides disclosed herein are believed to uncouple integrin signaling form CD 44 signaling. […] Cells treated with these molecules organize the arrays of disorganized into parallel bundles and freeze the normal, microtubular, mitotic bundle. As a result, the treated cells form several more asters at various locations with the cell, serving to further strengthen the cell's structure and preventing cell separation.

[1] = tested on: metastatic tumor cell line; experiment: apoptosis assay, flow cytometric analysis of propidium iodide uptake; format: cell-based; conditions: apoptosis assays
Text: A first generation osteopontin-derived biosynthetic molecule, oncolysin N, was engineered based on the isolation of a domain of osteopontin sufficient to impart pro-apoptotic activity when isolated away from the naturally-occurring osteopontin polypeptide. In particular, the oncolysin N molecule was designed to include the following domains: (1) a signal sequence (i.e., signal peptide), derived in this instance from the native osteopontin amino acid sequence (i.e., amino acids 1-16 of the human osteopontin-B amino acid sequence set forth as SEQ ID NO:1); (2) a golgi processing domain derived from the native osteopontin amino acid sequence (i.e., amino acids 17-30 of the human osteopontin-B amino acid sequence set forth as SEQ ID NO:1); (3) a pro-apoptotic domain comprising contiguous amino acid residues of human osteopontin-B sufficient to induce apoptosis (i.e., amino acids 147-170 of the human osteopontin-B amino acid sequence set forth as SEQ ID NO:1) yet lacking additional osteopontin-B sequences which are unnecessary for apoptotic activity, or alternatively decrease pro-apoptotic activity, of the biosynthetic molecule; and (4) two linker domains, a first linker domain operably linking the signal sequence to the golgi processing domain, and a second linker domain operably linking the golgi processing domain to the pro-apoptotic domain. The signal sequence and golgi processing domain optimize synthesis, processing through the golgi and secretion of the biosynthetic oncolysin N molecule. […]
Cells are grown in culture and treated with varying doses of exogenous oncolysin N. Apoptosis is determined by flow cytometric analysis according to the uptake of propidium iodide. […] DNA cleavage in apoptotic cells is assessed by flow cytometric analysis, as cells containing hypodiploid nuclei bind less propidium iodide than intact nuclei.
Cellular apoptosis can also be determined using standard criteria in the art such as nuclear condensation, chromatin fragmentation, and viability as assessed by Trypan blue exclusion. […]

MDA-MB-231 cells = experiment: FragEL apoptotic assay in cells infected with pRetro-oncolysin and induced with Doxycycline; format: cell-based, human; conditions: 48 h after infection, induced with 3 ug Doxycycline for 6 hours; versus uninduced cells
Method: 50,000 Breast tumor cells were infected with approximately 500,000 viral particles in DME+10% FBS containing 4 μg/ml polybrene. After 48 h., the MDA-MB-231 cells were induced with 3 ug of Doxycycline for 6 hours in defined media. Apoptosis was assessed using the FragEL™ apoptotic assay. Uninduced cells are viable and labeled blue when viewed at 10× magnification under a light microscope. […] Each experiment was performed in duplicates and repeated 3 times.

MDA-MB-231 tumor cells = experiment: tubulin staining by indirect fluorescent immunochemistry; format: cell-based, human; conditions: induced with 3 μg/ml Doxycycline, six hours; versus uninduced infected cells
Method: Oncolysin 1-infected MDA-MB-231 tumor cells were induced with 3 μg/ml of Doxycycline. After six hours, the cells were fixed in 10% formaldehyde then stained for tubulin using indirect fluorescent immunochemistry.

[2] = tested on: MDA-MB-231 Human Breast Cancer Cell; experiment: nuclear stain (H and E) of infected cells; format: cell-based; conditions: with or without doxycyclin induction for six hours
Text: Infected cells were stained with H and E without induction with doxycyclin or after induction for six hours.

SHP-1 = experiment: signal transduction pathway in infected cells (FIG. 3), SHP-1; format: cell-based; conditions: infected cells compared to control cells
Text: (§1) FIG. 3 depicts an alteration in the signal transduction pathway in cells infected with oncolysin 1/Sophin C as compared to control cells.

PI-3 kinase = experiment: signal transduction pathway in infected cells (FIG. 3), PI-3 kinase; format: cell-based; conditions: infected cells compared to control cells
Text: as §1

MDA-MB-231 xenografts = experiment: MDA-MB-231 xenograft tumor growth in nude mice (FIG. 4); format: in vivo; conditions: for tumor volume: compared to controls
Method: To evaluate the effectiveness of oncolysin 1/Sophin C against primary tumor growth and metastasis, 1×10^7 MDA-MB-231 breast cancer cells were injected subcutaneously into the left flank of nude mice. After six weeks the resulting tumors were aseptically dissected out, minced and 1 mm-tumor pieces were transplanted into the right flank of nude mice using a trocar needle. One weeks later, when tumors measured approximately 10 mm, mice were assigned to different experimental groups. One set of 24 animals bearing MDA-MB-231 xenografts were divided into 3 groups that received the following treatments: A first group of 8 animals were injected with pRetro-oncolysin (1×10^6 viral particles). After one day and weekly thereafter (for 3 weeks) these animals received a weekly injection of the inducing agent Doxycyxlin (1 mg/kg) through the peritoneal cavity. A second group of 8 animals received a weekly injection of Doxycyclin (uninfected tumors) and a third group received a weekly injection of oncolysin protein (10 μg/kg). In another set of experiments, the pRetro-oncolysin was injected into the marrow stroma of tumor bearing mice. After, day one, the animals were treated as above, with weekly injection of Doxycyclin. Tumors were measured once every two days with microcalipers, and tumor volume was calculated as length×width×height×0.5236. Body weight was measured on the day of the injection, 4 days later and weekly thereafter. Four days after the first injection, blood samples were collected from the tail vein using the Unopette™ micro-collection kit. Total leukocyte and platelet counts were determined manually using a hemocytometer. Blood smears stained with the Hema3™ kit were used for assessing absolute numbers of granulocytes and lymphocytes. Treatment-related toxicity was evaluated based on the differences in body weight, liver and kidney marker enzymes, and hematological parameters between treatment groups. 20 weeks after treatment, animals were killed by decapitation under anesthesia. […] Liver, heart, uterus, ovaries, lungs spinal cord and all long bones were evaluated histologically.

[3] = tested on: breast, prostate and uterine tumors; experiment: tumor growth in breast, prostate and uterine tumor models, dose response (FIG. 5); format: in vivo
Method: The effect of Sophin C on tumor growth was evaluated for three tumor types, breast, prostate and uterine.

Molecule	capping of microtubules (microtubules)	polymerization of microtubules (microtubules)	apoptotic activity (induction of apoptosis) [1]	other results
GIPVKQADSGSSEEKGGGPPTPVVPTVDTYDGRGDSVVYGLRKKKAARG RRAARGRR (GIPVKQADSGSSEEKGGGPPTPVVPTVDTYDGRGDSVVYGLRKKKAARGRRAARGRR) [SEQ ID NO:10]	inhibit the capping of microtubules	induces their unidirectional polymerization		
PGIPVKQADSGSSEEKGGGPGTPVVPTVDTYDGRGDSVVYGLRKKKAARGRRAARGRR (PGIPVKQADSGSSEEKGGGPGTPVVPTVDTYDGRGDSVVYGLRKKKAARGRRAARGRR) [SEQ ID NO:15]	inhibit the capping of microtubules	induces their unidirectional polymerization		
PGIPVKQADSGSSEEKGGGPGTPVVPTVDTYDGRGDSVVYGLRKKKAAR GRRAARGRR (PGIPVKQADSGSSEEKGGGPGTPVVPTVDTYDGRGDSVVYGLRKKKAARGRRAARGRR) [SEQ ID NO:14]	inhibit the capping of microtubules	induces their unidirectional polymerization		
PYAGRGDSVVYGLKKKNNQKAEPLIGRKKTR [SEQ ID NO:16]	inhibit the capping of microtubules	induces their unidirectional polymerization		
osteopontin-B: native human osteopontin-B, a preferred splice variant of the human osteopontin gene [reference compound]			no apoptotic activity	
B1	inhibit the capping of microtubules	induces their unidirectional polymerization		
B2	inhibit the capping of microtubules	induces their unidirectional polymerization	dramatically increase apoptotic activity	apoptosis (FragEL staining) (MDA-MB-231 cells): undergo apoptosis; tubulin staining (MDA-MB-231 tumor cells): stabilized tubulin around multi-nuclei; multinucleation [2]: Multinucleation was observed only in induced cells; SHP-1 protein expression (SHP-1): decreased SHP-1 protein expression; PI-3 kinase expression (PI-3 kinase): increased PI-3 kinase expression; health of treated mice (MDA-MB-231 xenografts; all treated mice, after approximately 6 months, control animals died or were sacrificed): remained healthy; tumor volume (MDA-MB-231 xenografts; group 1: pRetro-oncolysin 1×10^6 viral particles plus weekly Doxycyclin 1 mg/kg): striking reduction in tumor volume; tumor volume (MDA-MB-231 xenografts; group 3: weekly injection of oncolysin protein 10 μg/kg): striking reduction in tumor volume; tumor volume ([3]; 50 μg/kg protein): reduction in tumor volume; tumor volume ([3]; 500 μg/kg protein): reduction in tumor volume
B3	inhibit the capping of microtubules	induces their unidirectional polymerization		
B4	inhibit the capping of microtubules	induces their unidirectional polymerization		
B5			more effective at promoting apoptosis than oncolysin N	

Reference: patent US20050048614A1, “Biosynthetic oncolytic molecules and uses therefor” (Children's Medical Center Corporation, priority 2000, published 2005)
